Test results from IntAct's records for PubMed 17875931.

Biological target: itf2_human TCF4 (UniProt P15884)
Sequence (P15884 whole entry): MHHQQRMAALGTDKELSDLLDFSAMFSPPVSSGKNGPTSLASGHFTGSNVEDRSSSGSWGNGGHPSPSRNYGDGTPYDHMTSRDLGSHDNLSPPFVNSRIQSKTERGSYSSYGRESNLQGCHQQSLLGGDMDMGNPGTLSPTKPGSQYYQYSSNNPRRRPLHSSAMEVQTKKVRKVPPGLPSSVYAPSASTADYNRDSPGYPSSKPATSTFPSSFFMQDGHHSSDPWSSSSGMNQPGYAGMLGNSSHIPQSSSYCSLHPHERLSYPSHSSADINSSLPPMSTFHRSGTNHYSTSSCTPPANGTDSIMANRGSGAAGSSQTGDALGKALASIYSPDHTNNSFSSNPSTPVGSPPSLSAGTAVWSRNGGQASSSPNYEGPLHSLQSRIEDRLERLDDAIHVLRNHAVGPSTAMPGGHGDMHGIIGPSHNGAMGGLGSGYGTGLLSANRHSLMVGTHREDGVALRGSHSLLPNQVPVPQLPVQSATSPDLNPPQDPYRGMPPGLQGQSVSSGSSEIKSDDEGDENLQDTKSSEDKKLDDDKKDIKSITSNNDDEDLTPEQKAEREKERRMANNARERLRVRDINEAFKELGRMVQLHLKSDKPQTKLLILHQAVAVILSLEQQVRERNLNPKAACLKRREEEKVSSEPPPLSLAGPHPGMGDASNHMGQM

Chain of Transcription factor SOX-17 (Mus musculus), Q61473 G103R (Q61473 whole entry G103R): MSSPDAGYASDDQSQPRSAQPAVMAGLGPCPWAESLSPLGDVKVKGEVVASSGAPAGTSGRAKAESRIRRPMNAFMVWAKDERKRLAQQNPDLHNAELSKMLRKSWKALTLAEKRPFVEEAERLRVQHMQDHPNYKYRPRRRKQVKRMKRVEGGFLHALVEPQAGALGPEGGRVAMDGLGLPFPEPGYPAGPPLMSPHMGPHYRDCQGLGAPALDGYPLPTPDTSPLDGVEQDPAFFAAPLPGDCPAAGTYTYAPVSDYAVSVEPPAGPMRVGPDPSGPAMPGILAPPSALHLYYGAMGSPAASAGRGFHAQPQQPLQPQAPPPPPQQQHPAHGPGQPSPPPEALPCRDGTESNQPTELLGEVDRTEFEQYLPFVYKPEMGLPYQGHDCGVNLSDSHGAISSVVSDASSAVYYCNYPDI

Substance: Transcription factor SOX-17 (Mus musculus), Q61473 G103R
- effect of a mutation on the interaction: disrupting interaction
